Results as given in the supplement of paper PMC12042874.
± gives the uncertainty stated by the source.

Experiment: amyloid nucleation score (Sup35N fusion, yeast selection) (log enrichment); library NNK1; higher = more nucleation; inactive = no reads after selection
How it was run: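 The nucleation score is the DiMSum log enrichment of output over input reads, centred on the mode score of non-aggregating sequences. Only sequences with 100 or more input reads were scored, using Illumina sequencing of input and output plasmid inserts. Psi-negative yeast expressing Sup35N fused to peptides of 20 random codons were induced 24 hours with 100 μM copper sulfate and grown 7 days at 30°C on medium lacking adenine and uracil.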

Row | Substance | amyloid nucleation score
1 | ESPHYFTLTCV | -0.036 ± 0.74
2 | MFNHV | 0.807 ± 1
3 | IIRKPGLTRTCHTVLTAASE | 0.511 ± 0.91
4 | DSSCADR | 0.674 ± 0.41
5 | FISHGRIVHGEDGAVLFVSG | 0.277 ± 1.4
6 | ECGLGRSKEQSNGSWMCLHR | -0.464 ± 0.54
7 | ERNSITSILKRNRLSRGFAL | 2.44 ± 0.48
8 | SSVPHFAGSVVASDPPLYRL | 0.949 ± 0.81
9 | GSSGAWVCSGCL | -0.626 ± 1.2
10 | LLFHSGWMMNGNPWACWYRE | 1.89 ± 0.25
11 | RIGGETGCV | 0.216 ± 0.27
12 | HWIMAMFMSPPANTHDEAEI | 2.45 ± 0.15
13 | GIRCISLRKGHAGW | -1.65 ± 2.4
14 | TSSCLVYL | -0.413 ± 0.55
15 | PLFNNSRRCWGFGSLEDYLL | 0.213 ± 0.53
16 | RLNNRRFLSWRCTNNQCWRV | -0.159 ± 0.86
17 | SKLCVCGTASLLHYTVTERV | 5.29 ± 0.11
18 | GTIENFHGVTN | 0.413 ± 0.49
19 | KSAASILCTMNVSYRSNFLE | 1.08 ± 0.37
20 | FPTFLPQWTGKCFALRCGRW | inactive
21 | LYTIRTYPSLLKCDSPLN | -1.01 ± 0.78
22 | GITGSWINFRNCLTR | 0.774 ± 0.6
23 | LAIFSMFALFSIFGWSNDFT | -0.309 ± 0.43
24 | RIKYAWFCVFGTWNRIRVRI | 1.1 ± 0.68
25 | DCISRLWR | -0.83 ± 0.89

Row | Substance | amyloid nucleation score
26 | AYASFDGDPEGRGFTSSKGD | inactive
27 | GQVHRFIWLVT | -0.11 ± 0.3
28 | PVLSTYFHAKLQNTWMPGNR | -0.941 ± 0.77
29 | NRRSSKLIN | inactive
30 | QCVGPSVCVFVHRLVGCYRA | 3.34 ± 0.098
31 | VSVSRGRTFSFSIGSYRIGR | 3.11 ± 0.091
32 | FPLGSFIDLQRDMGIN | 0.53 ± 0.4
33 | VSVFLHAVITDPS | 1.9 ± 0.46
34 | SVDLVMEYSCDGNTLDFRSL | 0.157 ± 1.4
35 | SLGCYCRVKIVWVCILGYTA | 0.526 ± 0.27
36 | KTGTYWKSDGCVLWFGVKPA | 0.32 ± 0.38
37 | ICSIITPRPGFPTVLRSMKK | 0.846 ± 0.81
38 | SIPLCTLESQSEKVTWISDQ | 0.325 ± 0.78
39 | GPTATVPPRHTREFILFKYS | -0.593 ± 1
40 | RVMLKSDRFYYVLKTCAY | 1 ± 0.37
41 | HPFKLGVFNISGESLSTA | -0.802 ± 2.1
42 | DINNCSSEGRTYPFVIELPP | 1.03 ± 0.76
43 | SKQGRCLTFYQYVSLIISSM | -0.022 ± 0.18
44 | RNDTSDVYGSSGRSNRP | 0.007 ± 0.37
45 | MDSTDWRVLLGRSMGWS | -0.596 ± 0.47
46 | EIPLRAGWPPWCGSDICL | 0.639 ± 0.55
47 | AGFQFSIDYR | 0.259 ± 0.51
48 | NCSGCIWVRMCLNHFGVCTD | 2.38 ± 0.16
49 | KMIDICPFIHWSQSSTPSRA | 0.018 ± 0.67
50 | THTYGGDG | -0.096 ± 0.74

Row | Substance | amyloid nucleation score
51 | HNGHPRTAWVVVQY | 0.298 ± 0.28
52 | IANCQAGWGCRQA | 0.315 ± 0.32
53 | LWFINVLNK | 5.103 ± 0.049
54 | LNCRGVLDRTKSRVSHNNES | 3.38 ± 0.18
55 | IGSLGMCLQCYGAGV | 0.147 ± 1.2
56 | VFIYTAACP | 0.492 ± 0.45
57 | ILADIVDATWNFKSSISFLG | 1.74 ± 0.16
58 | FFQTLDWV | -1.13 ± 2.4
59 | WSCKVMRVYRP | 0.295 ± 0.4
60 | SGGLNFLGLPVVFF | 0.173 ± 0.92
61 | TLVSAVSCCLNAC | -0.269 ± 0.26
62 | TIFGHVRGSYETKWMWAPWR | 2.98 ± 0.12
63 | GRCDWTVLDMVDMIGKVESQ | 0.273 ± 0.25
64 | YNFVSCLVYRK | 6.9 ± 0.071
65 | WMFTGVRLVSK | 0.3 ± 0.43
66 | VTVFEILWGMTT | inactive
67 | LYICPHYDYWLCEQYMHWSP | 0.69 ± 0.35
68 | DARSNSVLYQRCSTSRGRSG | -0.615 ± 0.84
69 | LLNVVCRARVWS | -0.241 ± 0.32
70 | YTRFN | -1.66 ± 1.6
71 | MLTECSRFLNVFGVGEHEVN | -0.162 ± 0.58
72 | IWNIVWNNLVYVNFSNLGGV | 3.73 ± 0.08
73 | NWVRLFQFILTRYSAFAHFR | -0.264 ± 0.34
74 | VNSTMVPRVLME | 0.935 ± 0.69
75 | SFRACFGPWLFIALIPKNTV | -1.1 ± 0.61

Row | Substance | amyloid nucleation score
76 | FNYYITFHCTCELECRGYCT | 7.841 ± 0.05
77 | PISSGNCSTRLGSFSSWYSV | -0.485 ± 0.68
78 | VYSSMIVLKDALIPSSKTDA | 0.999 ± 0.51
79 | NDLYVGLDTYYIRHNLTRWF | 0.447 ± 0.2
80 | VKKGILLSVLDASFRTSVYE | -0.424 ± 0.88
81 | SGSDVILAYTPTPPGDSPVW | 0.645 ± 0.61
82 | CLPCVCIVNFTLGYDKGVV | 8.027 ± 0.048
83 | SSSEGRWMGYGP | -0.276 ± 0.53
84 | LLLYDPREC | -1.46 ± 0.91
85 | FTDLFPEDRIWVPDYAGQRR | 0.255 ± 1.4
86 | DGLICVPVKLYVNIGKTFTW | 0.847 ± 0.41
87 | SWCFN | 1.34 ± 0.59
88 | SLYRIFRKASFESCGLEWFA | 0.191 ± 0.66
89 | EGPQIKAAGKPY | -0.373 ± 0.32
90 | SRLQLNWLQPRWY | 4.27 ± 0.077
91 | LNISQRRIYFWSYWLHHITY | -0.282 ± 0.6
92 | GFRSCRCVQGRANVFPYSMS | -0.103 ± 0.25
93 | FTSPVIKY | 0.089 ± 0.89
94 | DRLVGWVVWLHVVFPRMYVL | 0.483 ± 0.72
95 | FYLSYVIIYSSSIRCLSSCR | 0.388 ± 0.71
96 | VPCGKLIISGGVQNCIYYWE | 7.306 ± 0.056
97 | HSYTRIE | -0.413 ± 0.24
98 | HSGMRVPSMAYLVL | -0.259 ± 0.7
99 | RRNVYFYVWYVSPNVMKYSN | 3.84 ± 0.1
100 | TCRCTKLTSAYMLRVWSVQF | -0.332 ± 0.55

Row | Substance | amyloid nucleation score
101 | FFSYVYGVSACFLVTLLFGP | -0.229 ± 0.32
102 | CVSATRV | 0.042 ± 0.48
103 | SSLLKWWDIVMKGEVIHGWC | -0.095 ± 0.47
104 | VIVARQFISPSVYGDAMDHS | 1.15 ± 0.97
105 | MNLRETSAFSPCNEVL | -0.063 ± 1.4
106 | AWDYNKN | 5.69 ± 0.075
107 | TEEFYPARSCMK | -1.87 ± 1.3
108 | RYLSHHP | 0.609 ± 0.55
109 | TCNRHSDTEGLC | -1.13 ± 0.66
110 | RYFSWFYVN | -0.089 ± 0.93
111 | SLPAEYSRRPKWVGASTVDW | 0.527 ± 0.55
112 | YPGGILIRRVNIKLDGAAIV | -0.869 ± 0.68
113 | IWIDKRWLMMPKLVRKVPNV | inactive
114 | CFIRLNNWLF | 1.59 ± 0.46
115 | KLSNFKVHYCYLTSHLMLET | 0.053 ± 0.43
116 | LRCRQKKYAAYRGTAVYWLL | -0.236 ± 0.76
117 | NGGYYAMGVGFLYVFALCHD | 2.05 ± 0.27
118 | MEGRVMGKRVAVY | -0.155 ± 0.59
119 | CRDRRS | 1.91 ± 0.35
120 | ETYGCFRYWISSLPVVEVSF | -0.368 ± 0.35
121 | SCHVTFKVFFLFAGPCREVL | 1.98 ± 0.27
122 | WAMDKGWKVNHCNEAPMIHC | -0.053 ± 0.37
123 | YVLKCKNILMYEYLNEVKIS | 0.219 ± 0.27
124 | IKWSGVVASGGDNPLTDHSR | -0.05 ± 0.71
125 | GGLWYTSTYSIYG | 2.42 ± 0.48

Row | Substance | amyloid nucleation score
126 | STFAAFSNTVYASCQYLLNG | -1.14 ± 0.93
127 | CPMEKSGVELDV | 0.094 ± 0.41
128 | RYMLFVFHSLTGYYIRRFVY | -1.22 ± 1
129 | ISYESWVLRGIARGFQGLVG | -1.09 ± 0.7
130 | RPSITNRPC | 0.735 ± 0.83
131 | IQALDLDTVFDCC | 6.45 ± 0.088
132 | PPHIRKAGMRTFMGGLGLRG | 0.619 ± 0.67
133 | VSKRFRFLRTLFIEECDLRH | 0.576 ± 0.32
134 | KPLILVQNTKLPSRFCYPLT | -0.488 ± 0.74
135 | VYFRCTWAISMFFYMSNAGW | 1.35 ± 0.21
136 | LDMKSFEQLVKQLPCTWADD | 0.222 ± 0.41
137 | GVLYSDTLT | 1.5 ± 0.14
138 | ADYVKMNRDFRVGTTYDMST | 1.18 ± 0.65
139 | VRADFALTWLLGVCRVWCCR | 0.247 ± 0.36
140 | LSWCLPCLSARSVRSRRMVT | 0.161 ± 0.25
141 | RRRASGHRASY | -0.52 ± 0.39
142 | LMRRAAVFFAGSRAGSRCLT | -0.675 ± 0.4
143 | YSDWHI | -0.511 ± 0.91
144 | CLFRCVVEPLVIGYTKCAS | inactive
145 | VLIFWWIMKGRFWVMCSAGY | 0.621 ± 0.89
146 | RDWKSFSVCVFLIFIACNTG | -0.605 ± 0.4
147 | CHNVVLFVVTQSMCEVSGGW | inactive
148 | GSICSVVVTMLVFSNKVTSL | -0.353 ± 0.6
149 | TFWVGEKSRVGSVPFQYLRL | -0.152 ± 0.31
150 | IKTMISQY | -0.406 ± 0.25

Row | Substance | amyloid nucleation score
151 | LISCIRFYCSVLGVDCTDSV | 0.235 ± 0.39
152 | GRFFRRLRECNLPHSNIHAY | 0.343 ± 0.42
153 | VLLSQIVGIWAL | -0.642 ± 0.67
154 | SRGVQGMYDDYKDGGLLYLV | -0.228 ± 0.19
155 | HISMRDFFSHLGRRVVGIMY | -1.1 ± 0.45
156 | NPPVWPSTFQE | -0.159 ± 0.58
157 | GLREMRNISAVFCFRLYICL | 1.58 ± 0.14
158 | QKSLSVEPDAH | -0.557 ± 0.37
159 | QGFRVWKLNTIKRHSWMGFA | 0.772 ± 0.44
160 | MMPSECMEFLMCLWFGSGSD | -0.722 ± 0.55
161 | SKYIGVVSPTWLH | 0.428 ± 1.2
162 | YSFLNYLLTRFDIIFLAAED | inactive
163 | PGWYFDTGSAPLQVSRRSGL | 0.66 ± 0.63
164 | MFYSFNDVGWFAFRFSEIGV | -0.539 ± 0.41
165 | ISRWMSVDLCLPKLATGTVS | -0.083 ± 0.4
166 | TGRRLERGMRLRHGDAEYCC | 0.408 ± 0.28
167 | DNMYIFEN | -0.352 ± 0.46
168 | DSRVKRY | inactive
169 | CLRLELDKF | 3.34 ± 0.12
170 | RFMTHLVRRLYAFGMSF | inactive
171 | PVDFNQYVVSGLQDLLHYAG | inactive
172 | DTVYDFTMPAWYDYMFWTKW | inactive
173 | APMYDDLDATMVELEGP | 0.254 ± 1.2
